Here are results for 14 substances from patent US20240132578A1.

Assay in all cases: cell-based or functional assay
The target of assay [1] is HIV-1 Env of isolate 92UG031 (clade A pseudovirus) (HIV-1).
The target of assay [2] is HIV-1 Env of pseudovirus MGRM-G-017 (HIV-1).
Assay [3] deals with HIV-1 Env of isolate MGRM-Chronic-B-004, clade B (HIV-1).
In assay [4] the target is HIV-1 Env of isolate MGRM-D-026 (clade D pseudovirus) (HIV-1).
Assay [5] addresses HIV-1 NL43 envelope (Env) on pseudovirus (HIV-1).
The target of assay [6] is HIV-1 envelope glycoprotein (Env) of isolate MGRM-C-001 (HIV-1).
The target in assay [7] is HIV-1 Env of isolate NL43, clade B (HIV-1).
Assay [8] has as its target HIV-1 MGRM-AE-004 Env (pseudovirus) (HIV-1).
The target in assay [9] is HIV-1 Env of isolate 92UG005 (clade D pseudovirus) (HIV-1).
Assay [10] addresses HIV-1 Env of pseudovirus MGRM-F1-010 (clade F) (HIV-1).
Assay [11] has as its target HIV-1 envelope glycoprotein (Env) of isolate MGRM-C-014 (HIV-1).
Assay [12] addresses HIV-1 envelope glycoprotein (Env) of isolate MGRM-C-023 (HIV-1).
Assay [13] addresses HIV-1 Env of isolate 92RW020 (clade A pseudovirus) (HIV-1).
For assay [14], the target named is HIV-1 Env of isolate MGRM-D-008 (pseudovirus) (HIV-1).
In assay [15] the target is HIV-1 Env of isolate VLGCA1 (subtype A) (HIV-1).
The target in assay [16] is HIV-1 Env of isolate MGRM-AG-008 (subtype AG) (HIV-1).
The target of assay [17] is HIV-1 Env of isolate MGRM-A-008 (subtype A) (HIV-1).
The target in assay [18] is HIV-1 Env of isolate MGRM-AG-009 (subtype AG) (HIV-1).
Assay [19] addresses HIV-1 JR-CSF Env I415A (HIV-1 (isolate JR-CSF)) (UniProt P20871).
The target in assay [20] is HIV-1 Env of isolate 92UG046 (pseudovirus) (HIV-1).
Assay [21] deals with HIV-1 JR-CSF Env I424A (HIV-1 (isolate JR-CSF)) (UniProt P20871).
Assay [22] has as its target HIV-1 JR-CSF Env E466A (HIV-1 (isolate JR-CSF)) (UniProt P20871).
The target of assay [23] is HIV-1 JR-CSF Env I423A (I4234 in the source) (HIV-1 (isolate JR-CSF)) (UniProt P20871).
In assay [24] the target is HIV-1 Env of isolate MGRM-F1-016 (HIV-1).
Assay [25] concerns the target HIV-1 Env of isolate MGRM-Chronic-B-003 (HIV-1).
The target in assay [26] is HIV-1 Env of pseudovirus MGRM-D-028 (HIV-1).
The target of assay [27] is HIV-1 Env of pseudovirus MGRM-D-022 (HIV-1).
In assay [28] the target is HIV-1 92TH021 envelope protein (Env) on pseudovirus (HIV-1).
Assay [29] concerns the target HIV-1 92UG005 envelope protein (Env) on pseudovirus (HIV-1).
Assay [30] deals with HIV-1 MGRM-D-018 envelope protein (Env) on pseudovirus (HIV-1).
Assay [31] addresses HIV-1 Env of isolate MGRM-C-023 (subtype C), on pseudovirus (HIV-1).
Assay [32] has as its target HIV-1 Env of isolate MGRM-G-027 (subtype G) (HIV-1).
Assay [33] concerns the target HIV-1 Env of isolate MGRM-C-020 (subtype C), on pseudovirus (HIV-1).
The target in assay [34] is HIV-1 Env of isolate MGRM-G-028 (subtype G) (HIV-1).
Assay [35] addresses HIV-1 Env of isolate MGRM-C-019 (subtype C), on pseudovirus (HIV-1).
Assay [36] has as its target HIV-1 Env of isolate MGRM-C-028 (subtype C), on pseudovirus (HIV-1).
For assay [37], the target named is HIV-1 MGRM-D-018 Env (HIV-1).

For the substance b12 (antibody), the IC50 (µg/ml), pseudovirus neutralization in [1] is > 50 µg/mL; in [2] it was > 50 µg/mL; in assay [3], 0.26 µg/mL; in assay [6], > 50 µg/mL; in assay [7], 0.17 µg/mL; in assay [8] it was > 50 µg/mL. Also, the IC50 (µg/ml), pseudovirus neutralization in [11] is > 50 µg/mL; in assay [12], 13.9 µg/mL; in assay [13], > 50 µg/mL. For the same substance, the IC50, pseudovirus neutralization in assay [4] was 1.55 µg/mL; in assay [9], > 50 µg/mL. In [5], this substance returned a neutralization IC50 of 0.06 µg/mL. The IC50 in [10] is > 50 µg/mL.

As to 5114_A19 (PGT-128) (antibody), the IC50 (µg/mL), pseudovirus neutralization was 0.033 µg/mL in assay [14], > 50 µg/mL in assay [20], 1.21 µg/mL in assay [24] and 0.007 µg/mL in assay [25]. Moreover, the IC50, pseudovirus neutralization is 0.838 µg/mL in assay [15], 0.668 µg/mL in assay [16], > 50 µg/mL in [17] and 0.021 µg/mL in [18]. In addition, the Fold IC50 increase relative to wild-type (pseudovirus neutralization) in [19] is 0.7 fold; in assay [21], 1.3 fold; in assay [22] it was 0.6 fold; in assay [23], 2.6 fold.

For the substance 5136_H01 (PGT-131) (antibody), the IC50 (µg/mL), pseudovirus neutralization in assay [14], in assay [20], in assay [24] and in [25] was > 50 µg/mL throughout. For the same substance, the IC50, pseudovirus neutralization in [15], in assay [16], in assay [17] and in assay [18] was > 50 µg/mL throughout. Besides, the Fold IC50 increase relative to wild-type (pseudovirus neutralization) was 0.6 fold in [19], 4.8 fold in assay [21], 1.7 fold in assay [22] and > 80 fold in assay [23].

In the case of 5345_I01 (PGT-137) (antibody), the IC50 (µg/mL), pseudovirus neutralization in assay [14], in assay [20], in assay [24] and in assay [25] was > 50 µg/mL throughout. In addition, the IC50, pseudovirus neutralization in assay [15], in assay [16], in assay [17] and in [18] was > 50 µg/mL in each case.

PGT-141 (4964_G22; 4993_K13) (antibody): the IC50, pseudovirus neutralization in assay [26] is < 50 µg/mL; in assay [27], > 50 µg/mL.

For the substance 5329_C19 (PGT-136) (antibody), the IC50 (ug/mL), pseudovirus neutralization in [28], in assay [29] and in assay [30] was > 10 µg/mL throughout. Besides, the IC50 (µg/mL), pseudovirus neutralization in [14], in assay [20], in [24] and in assay [25] was > 50 µg/mL each time. For the same substance, the IC50, pseudovirus neutralization in assay [15], in assay [16], in [17] and in assay [18] was > 50 µg/mL in each case.

Consider VRC01 (antibody), for which the IC50, single-round pseudovirus neutralization in assay [31] was 0.077 µg/mL; in assay [33], 0.396 µg/mL; in [35] it was 1.13 µg/mL; in assay [36] it was 0.319 µg/mL. In addition, the IC50 (µg/mL), pseudovirus neutralization in [32] was determined as 0.36 µg/mL; in [34], 0.164 µg/mL. Also, the IC50, pseudovirus neutralization was 0.377 µg/mL in assay [26] and > 50 µg/mL in assay [27].

On to 5147_N06 (PGT-130) (antibody), for which the IC50 (ug/mL), pseudovirus neutralization in assay [28] came out at 0.0082 µg/mL; in assay [29] it was 0.474 µg/mL; in assay [30] it was 0.0378 µg/mL. Besides, the IC50 (µg/mL), pseudovirus neutralization in assay [14], in [20], in assay [24] and in assay [25] was > 50 µg/mL throughout. In addition, the IC50, pseudovirus neutralization in assay [15] was > 50 µg/mL; in assay [37], 0.0378 µg/mL; in assay [16], > 50 µg/mL; in assay [17] it was > 50 µg/mL; in [18], 9.46 µg/mL. The Fold IC50 increase relative to wild-type (pseudovirus neutralization) in assay [19] is 0.6 fold; in [21] it was 3.9 fold; in assay [22] it was 1.7 fold; in assay [23] it was > 1000 fold.

Consider 2G12 (antibody), for which the IC50 (µg/ml), pseudovirus neutralization in [1] is > 50 µg/mL; in assay [2], > 50 µg/mL; in [3], 8.65 µg/mL; in [6], 2.93 µg/mL; in assay [7], 0.49 µg/mL; in assay [8], > 50 µg/mL. For the same substance, the IC50 (µg/ml), pseudovirus neutralization in [11] was > 50 µg/mL; in [12] it was > 50 µg/mL; in [13], 0.48 µg/mL. Besides, the IC50, pseudovirus neutralization in assay [4] and in assay [9] was > 50 µg/mL each time. In assay [5], this substance yielded a neutralization IC50 of 0.75 µg/mL.

Regarding PGT-144 (4970_K22) (antibody), the IC50, pseudovirus neutralization in assay [26] and in [27] was > 50 µg/mL each time.

For PGT-142 (4995_E20) (antibody), the IC50, pseudovirus neutralization in assay [26] and in [27] was > 50 µg/mL throughout.

5343_B08 (PGT-135) (antibody): the IC50 (ug/mL), pseudovirus neutralization was > 10 µg/mL in assay [28], > 10 µg/mL in assay [29] and 0.0433 µg/mL in assay [30]. Besides, the IC50 (µg/mL), pseudovirus neutralization in [14], in [20], in assay [24] and in assay [25] was > 50 µg/mL each time. The IC50, pseudovirus neutralization in [15], in assay [16], in assay [17] and in assay [18] was > 50 µg/mL each time. Further, the Fold IC50 increase relative to wild-type (pseudovirus neutralization) in assay [19] was determined as 5 fold; in assay [21], 0.1 fold; in assay [22] it was 0.5 fold; in assay [23] it was 0.1 fold.

Turning to PGT-143 (4980_N08) (antibody), the IC50, pseudovirus neutralization in assay [26] and in [27] was > 50 µg/mL each time.

Consider PGT-145 (4995_P16) (antibody), for which the figures for the IC50, pseudovirus neutralization in assay [26] and in assay [27] were 0.721 µg/mL and 34.3 µg/mL, respectively.

A word on the IC50: it is the midpoint of a concentration-inhibition curve.
